Test results reported in PMC4636849.

Test system: H-NS
Test: EMSA
Settings: EMSA: ~5 ng DNA, 50 ng poly(dI-dC), 15 ul, 20 C 10 min; binding buffer not stated (cited); 7% polyacrylamide gel in TAE (Tris-HCl 40 mM pH 7.4, Na acetate …)

Substance “mdtJI promoter fragment, 588 bp (-229 to +359)” has a K half of 320 nM.
